Test results published in article PMC9482650, “Quantitative fragmentomics allow affinity mapping of interactomes” (Nature Communications, 2022).

T1: PTPN13_1, Q12923
T1 sequence (Q12923 1088-1188, limits assumed, looked up): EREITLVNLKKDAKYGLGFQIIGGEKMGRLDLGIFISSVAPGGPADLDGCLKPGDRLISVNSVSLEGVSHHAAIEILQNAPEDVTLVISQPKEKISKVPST

T2: RAPGEF6, Q8TEU7
T2 sequence (Q8TEU7 525-625, limits assumed, looked up): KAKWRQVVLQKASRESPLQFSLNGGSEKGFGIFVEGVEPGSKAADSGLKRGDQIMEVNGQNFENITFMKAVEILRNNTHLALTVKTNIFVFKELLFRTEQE

T3: APBA1_1, Q02410
T3 sequence (Q02410 651-752, limits assumed, looked up): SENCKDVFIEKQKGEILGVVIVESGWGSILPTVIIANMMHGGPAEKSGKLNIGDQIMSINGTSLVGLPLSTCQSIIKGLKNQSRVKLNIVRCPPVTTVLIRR

T4: TIAM2, Q8IVF5
T4 sequence (Q8IVF5 885-986, limits assumed, looked up): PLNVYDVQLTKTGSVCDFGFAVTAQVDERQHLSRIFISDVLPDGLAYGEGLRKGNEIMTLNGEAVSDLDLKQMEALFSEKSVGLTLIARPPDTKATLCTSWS

T5: MPDZ_12, O75970
T5 sequence (O75970 1857-1958, limits assumed, looked up): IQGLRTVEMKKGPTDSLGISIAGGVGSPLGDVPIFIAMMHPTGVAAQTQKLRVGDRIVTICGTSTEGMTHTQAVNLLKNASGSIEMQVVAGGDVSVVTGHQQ

T6: MPDZ_5, O75970
T6 sequence (O75970 695-796, limits assumed, looked up): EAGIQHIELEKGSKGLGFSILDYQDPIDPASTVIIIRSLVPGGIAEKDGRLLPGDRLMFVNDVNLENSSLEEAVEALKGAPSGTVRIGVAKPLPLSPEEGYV

T7: GRIP1_2, Q9Y3R0
T7 sequence (Q9Y3R0 145-248, limits assumed, looked up): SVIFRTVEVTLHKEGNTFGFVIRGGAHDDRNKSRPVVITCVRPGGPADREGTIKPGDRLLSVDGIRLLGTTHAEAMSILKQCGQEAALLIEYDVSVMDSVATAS

T8: RHPN1, Q8TCX5
T8 sequence (Q8TCX5 508-602, limits assumed, looked up): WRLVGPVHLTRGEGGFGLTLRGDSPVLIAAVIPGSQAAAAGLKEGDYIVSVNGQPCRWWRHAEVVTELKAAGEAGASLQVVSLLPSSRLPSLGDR

T9: PDZD2_2, O15018
T9 sequence (O15018 329-429, limits assumed, looked up): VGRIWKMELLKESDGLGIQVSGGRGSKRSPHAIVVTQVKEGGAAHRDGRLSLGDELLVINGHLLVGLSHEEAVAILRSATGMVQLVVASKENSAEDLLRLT

T10: LNX2_3, Q8N448
T10 sequence (Q8N448 463-564, limits assumed, looked up): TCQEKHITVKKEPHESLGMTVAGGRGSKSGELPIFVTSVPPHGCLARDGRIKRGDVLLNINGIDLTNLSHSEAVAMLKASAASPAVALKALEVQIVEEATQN

B1: RCN2, Q14257 (peptide)
chain: HDDYFYHDEL
B2: NRXN3, Q9HDB5 (peptide)
chain: QKNKDREYYV

Each binder was assayed against LNX1_2, Q8TBB1 (assay: holdup assay). Conditions: plain residues with an end cap or a label only (N-terminal biotin on a linker: ado-ado).
Design: key: below the threshold = too weak to quantify, mostly under pKd 3.1 to 4

LNX1_2, Q8TBB1, sequence (Q8TBB1 371-470): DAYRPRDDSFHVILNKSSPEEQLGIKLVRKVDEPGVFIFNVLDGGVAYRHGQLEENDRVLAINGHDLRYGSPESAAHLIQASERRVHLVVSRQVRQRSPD

pKd	Binder
below the threshold	B1
4.08	B2

These binders were tested against T1, PTPN13_1, Q12923 (assay: holdup assay). Conditions: plain residues with an end cap or a label only (N-terminal biotin on a linker: ado-ado).
Design: key: below the threshold = too weak to quantify, mostly under pKd 3.1 to 4

pKd	Binder
below the threshold	B1
below the threshold	B2

These binders were tested against HTRA2, O43464 (assay: holdup assay). Conditions: plain residues with an end cap or a label only (N-terminal biotin on a linker: ado-ado).
Design: key: below the threshold = too weak to quantify, mostly under pKd 3.1 to 4

HTRA2, O43464, sequence (O43464 355-458): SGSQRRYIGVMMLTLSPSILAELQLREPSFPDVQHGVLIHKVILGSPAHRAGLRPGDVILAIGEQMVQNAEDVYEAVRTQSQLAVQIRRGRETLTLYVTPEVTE

pKd	Binder
below the threshold	B1
4.02	B2

Each binder was assayed against T2, RAPGEF6, Q8TEU7 (assay: holdup assay). Conditions: plain residues with an end cap or a label only (N-terminal biotin on a linker: ado-ado).
Design: key: below the threshold = too weak to quantify, mostly under pKd 3.1 to 4

pKd	Binder
below the threshold	B1
below the threshold	B2

What follows are binders tested against FRMPD2_1, Q68DX3 (assay: holdup assay). Conditions: plain residues with an end cap or a label only (N-terminal biotin on a linker: ado-ado).
Design: key: below the threshold = too weak to quantify, mostly under pKd 3.1 to 4

FRMPD2_1, Q68DX3, sequence (Q68DX3 770-861): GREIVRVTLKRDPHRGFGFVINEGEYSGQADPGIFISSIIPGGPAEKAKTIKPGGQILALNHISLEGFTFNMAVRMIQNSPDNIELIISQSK

pKd	Binder
below the threshold	B1
3.7	B2

What follows are binders tested against GRIP2_7, Q9C0E4 (assay: holdup assay). Conditions: plain residues with an end cap or a label only (N-terminal biotin on a linker: ado-ado).
Design: key: below the threshold = too weak to quantify, mostly under pKd 3.1 to 4

GRIP2_7, Q9C0E4, sequence (Q9C0E4 934-1023): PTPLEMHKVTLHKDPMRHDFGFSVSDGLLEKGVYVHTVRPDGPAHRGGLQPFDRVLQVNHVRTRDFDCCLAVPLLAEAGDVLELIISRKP

pKd	Binder
below the threshold	B1
4.89	B2

These binders were tested against GRIP2_3, Q9C0E4 (assay: holdup assay). Conditions: plain residues with an end cap or a label only (N-terminal biotin on a linker: ado-ado).
Design: key: below the threshold = too weak to quantify, mostly under pKd 3.1 to 4

GRIP2_3, Q9C0E4, sequence (Q9C0E4 238-339): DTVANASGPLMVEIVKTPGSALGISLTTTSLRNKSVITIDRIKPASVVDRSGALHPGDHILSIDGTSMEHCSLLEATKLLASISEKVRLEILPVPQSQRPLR

pKd	Binder
below the threshold	B1
below the threshold	B2

What follows are binders tested against T3, APBA1_1, Q02410 (assay: holdup assay). Conditions: plain residues with an end cap or a label only (N-terminal biotin on a linker: ado-ado).
Design: key: below the threshold = too weak to quantify, mostly under pKd 3.1 to 4

pKd	Binder
below the threshold	B1
below the threshold	B2

These binders were tested against MAGI2_2, Q86UL8 (assay: holdup assay). Conditions: plain residues with an end cap or a label only (N-terminal biotin on a linker: ado-ado).
Design: key: below the threshold = too weak to quantify, mostly under pKd 3.1 to 4

MAGI2_2, Q86UL8, sequence (Q86UL8 410-522): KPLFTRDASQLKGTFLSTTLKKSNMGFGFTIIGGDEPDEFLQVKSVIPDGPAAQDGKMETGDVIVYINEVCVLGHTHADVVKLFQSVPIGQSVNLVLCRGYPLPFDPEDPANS

pKd	Binder
below the threshold	B1
4.32	B2

Each binder was assayed against T4, TIAM2, Q8IVF5 (assay: holdup assay). Conditions: plain residues with an end cap or a label only (N-terminal biotin on a linker: ado-ado).
Design: key: below the threshold = too weak to quantify, mostly under pKd 3.1 to 4

pKd	Binder
below the threshold	B1
4.41	B2

Each binder was assayed against SNX27, Q96L92 (assay: holdup assay). Conditions: plain residues with an end cap or a label only (N-terminal biotin on a linker: ado-ado).
Design: key: below the threshold = too weak to quantify, mostly under pKd 3.1 to 4

pKd	Binder
3.77	B1
3.64	B2

What follows are binders tested against PARD3_3, Q8TEW0 (assay: holdup assay). Conditions: plain residues with an end cap or a label only (N-terminal biotin on a linker: ado-ado).
Design: key: below the threshold = too weak to quantify, mostly under pKd 3.1 to 4

PARD3_3, Q8TEW0, sequence (Q8TEW0 582-685): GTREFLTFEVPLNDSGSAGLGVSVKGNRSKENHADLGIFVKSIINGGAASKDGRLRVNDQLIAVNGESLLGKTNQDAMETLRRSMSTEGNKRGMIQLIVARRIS

pKd	Binder
3.96	B1
4.59	B2

What follows are binders tested against NHERF4_1, Q86UT5-2 (assay: holdup assay). Conditions: plain residues with an end cap or a label only (N-terminal biotin on a linker: ado-ado).
Design: key: below the threshold = too weak to quantify, mostly under pKd 3.1 to 4

NHERF4_1, Q86UT5-2, sequence (Q86UT5 other isoform, or with tags, fused parts or gaps): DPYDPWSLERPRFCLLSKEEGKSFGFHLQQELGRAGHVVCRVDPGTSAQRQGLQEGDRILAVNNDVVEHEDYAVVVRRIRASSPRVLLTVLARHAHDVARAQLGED

pKd	Binder
4.1	B1
below the threshold	B2

These binders were tested against FRMPD3, Q5JV73 (assay: holdup assay). Conditions: plain residues with an end cap or a label only (N-terminal biotin on a linker: ado-ado).
Design: key: below the threshold = too weak to quantify, mostly under pKd 3.1 to 4

FRMPD3, Q5JV73, sequence (Q5JV73 12-100): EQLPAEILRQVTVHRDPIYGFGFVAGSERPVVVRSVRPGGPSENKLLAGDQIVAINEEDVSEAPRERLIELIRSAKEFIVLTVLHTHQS

pKd	Binder
below the threshold	B1
4.03	B2

The binders below were run against T5, MPDZ_12, O75970 (assay: holdup assay). Conditions: plain residues with an end cap or a label only (N-terminal biotin on a linker: ado-ado).
Design: key: below the threshold = too weak to quantify, mostly under pKd 3.1 to 4

pKd	Binder
below the threshold	B1
below the threshold	B2

These binders were tested against T6, MPDZ_5, O75970 (assay: holdup assay). Conditions: plain residues with an end cap or a label only (N-terminal biotin on a linker: ado-ado).
Design: key: below the threshold = too weak to quantify, mostly under pKd 3.1 to 4

pKd	Binder
below the threshold	B1
4.71	B2

What follows are binders tested against LAP2, Q96RT1 (assay: holdup assay). Conditions: plain residues with an end cap or a label only (N-terminal biotin on a linker: ado-ado).
Design: key: below the threshold = too weak to quantify, mostly under pKd 3.1 to 4

LAP2, Q96RT1, sequence (Q96RT1 other isoform, or with tags, fused parts or gaps): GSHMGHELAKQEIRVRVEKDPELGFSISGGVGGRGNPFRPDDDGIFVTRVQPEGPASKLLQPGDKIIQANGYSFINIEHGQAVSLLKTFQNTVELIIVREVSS

pKd	Binder
below the threshold	B1
below the threshold	B2

The binders below were run against DLG4_3, P78352 (assay: holdup assay). Conditions: plain residues with an end cap or a label only (N-terminal biotin on a linker: ado-ado).
Design: key: below the threshold = too weak to quantify, mostly under pKd 3.1 to 4

DLG4_3, P78352, sequence (P78352 306-403): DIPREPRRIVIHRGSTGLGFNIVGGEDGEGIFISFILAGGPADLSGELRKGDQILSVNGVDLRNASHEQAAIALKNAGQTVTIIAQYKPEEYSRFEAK

pKd	Binder
3.53	B1
below the threshold	B2

The binders below were run against DLG4_1, P78352 (assay: holdup assay). Conditions: plain residues with an end cap or a label only (N-terminal biotin on a linker: ado-ado).
Design: key: below the threshold = too weak to quantify, mostly under pKd 3.1 to 4

DLG4_1, P78352, sequence (P78352 62-152): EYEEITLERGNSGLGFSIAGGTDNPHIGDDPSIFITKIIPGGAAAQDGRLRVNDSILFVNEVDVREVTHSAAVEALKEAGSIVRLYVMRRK

pKd	Binder
3.54	B1
below the threshold	B2

What follows are binders tested against T7, GRIP1_2, Q9Y3R0 (assay: holdup assay). Conditions: plain residues with an end cap or a label only (N-terminal biotin on a linker: ado-ado).
Design: key: below the threshold = too weak to quantify, mostly under pKd 3.1 to 4

pKd	Binder
below the threshold	B1
below the threshold	B2

The binders below were run against T8, RHPN1, Q8TCX5 (assay: holdup assay). Conditions: plain residues with an end cap or a label only (N-terminal biotin on a linker: ado-ado).
Design: key: below the threshold = too weak to quantify, mostly under pKd 3.1 to 4

pKd	Binder
below the threshold	B1
below the threshold	B2

Each binder was assayed against NOS1, P29475 (assay: holdup assay). Conditions: plain residues with an end cap or a label only (N-terminal biotin on a linker: ado-ado).
Design: key: below the threshold = too weak to quantify, mostly under pKd 3.1 to 4

NOS1, P29475, sequence (P29475 9-101): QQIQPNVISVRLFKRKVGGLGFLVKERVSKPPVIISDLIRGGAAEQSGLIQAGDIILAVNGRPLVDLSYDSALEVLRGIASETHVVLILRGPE

pKd	Binder
below the threshold	B1
4.11	B2

Each binder was assayed against DLG1_1, Q12959 (assay: holdup assay). Conditions: plain residues with an end cap or a label only (N-terminal biotin on a linker: ado-ado).
Design: key: below the threshold = too weak to quantify, mostly under pKd 3.1 to 4

pKd	Binder
below the threshold	B1
below the threshold	B2

The binders below were run against Inadl_1, Q8NI35 (assay: holdup assay). Conditions: plain residues with an end cap or a label only (N-terminal biotin on a linker: ado-ado).
Design: key: below the threshold = too weak to quantify, mostly under pKd 3.1 to 4

Inadl_1, Q8NI35, sequence (Q8NI35 113-229): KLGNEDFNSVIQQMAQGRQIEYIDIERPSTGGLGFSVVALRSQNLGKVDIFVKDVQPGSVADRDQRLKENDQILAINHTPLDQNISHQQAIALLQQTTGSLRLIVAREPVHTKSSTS

pKd	Binder
below the threshold	B1
3.69	B2

These binders were tested against T9, PDZD2_2, O15018 (assay: holdup assay). Conditions: plain residues with an end cap or a label only (N-terminal biotin on a linker: ado-ado).
Design: key: below the threshold = too weak to quantify, mostly under pKd 3.1 to 4

pKd	Binder
below the threshold	B1
4.56	B2

The binders below were run against T10, LNX2_3, Q8N448 (assay: holdup assay). Conditions: plain residues with an end cap or a label only (N-terminal biotin on a linker: ado-ado).
Design: key: below the threshold = too weak to quantify, mostly under pKd 3.1 to 4

pKd	Binder
below the threshold	B1
below the threshold	B2

Each binder was assayed against DLG2_3, Q15700 (assay: holdup assay). Conditions: plain residues with an end cap or a label only (N-terminal biotin on a linker: ado-ado).
Design: key: below the threshold = too weak to quantify, mostly under pKd 3.1 to 4

pKd	Binder
below the threshold	B1
below the threshold	B2

These binders were tested against MAST2, Q6P0Q8 (assay: holdup assay). Conditions: plain residues with an end cap or a label only (N-terminal biotin on a linker: ado-ado).
Design: key: below the threshold = too weak to quantify, mostly under pKd 3.1 to 4

MAST2, Q6P0Q8, sequence (Q6P0Q8 1099-1202): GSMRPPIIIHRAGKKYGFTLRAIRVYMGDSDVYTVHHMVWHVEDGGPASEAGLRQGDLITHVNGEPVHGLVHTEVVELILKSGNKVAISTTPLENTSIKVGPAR

pKd	Binder
4.85	B1
3.77	B2
